Data as given in the supplement of paper PMC9170038.

test system: K4 kissing-loop RNA reporter; assay: apparent KD of K4 kissing-loop reporter; higher = weaker reporter binding; settings: Eterna round: R107; input ligand: theophylline 20 uM
Protocol: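 RNA-MaP round R107: designed RNA switches with theophylline, tryptophan, arginine or FMN aptamers are transcribed on-chip within common flanks. They are titrated with a labelled K4 kissing-loop RNA reporter in RNA-MaP buffer (100 mM Tris pH 7.5, 80 mM KCl, 4 mM MgCl2), without ligand or with the indicated ligand. Median apparent KD per design.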
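Also: bound reporter read as fluorescence of individual clusters on recovered sequencing chips by microscopy, with normalized cluster intensities fitted with a binding model.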

Sequence	apparent KD of K4 kissing-loop reporter
GGGAGUGAUGUUCCCACGUUGUCGGUCCUUCGAGGACCGGUACGGCCGCCACUCGCGACCCAGUGAUGUUGGGAUUCACCGUACC [Exclusion Tryptophan A Gf 13]	0.506 µM
AAAUAAAGCAGUCACCCAGUGAUGUUGGAAGGAGCGUGCGAAAGCACAGGUAGGUCGCCAAAACCUAAUACUGGCUGCUAAAUAA [#03 K4 Arginine A Exclusion]	0.307 µM
CGUUUAUAGCAGGAUACCAGUGCGGAUAAGGUGCGUUAAUAGUAGAGUGAUGUUCUAAAGUACCCUUGGCAGCUUAGAGUGAGUG [#21 K4 Theophylline B Exclusion]	0.273 µM
AACUGGGUUCGUGAUACCAGCUCACACAUGAGUGAUGUUCAUGUAGUGGGCAAAAUGUGGAGCCCUUGGCAGCACUGUGACCACG [XTheo-B2]	0.0733 µM
CCAUCGCUAUUCGAUACCAGCUACUUAGUGAUGUUAAGUUUUUAUCCACUGUAGGUGGAAAGCCCUUGGCAGCGAAUAGUGAUGG [Theophylline B K4 26]	0.234 µM
UCGAACGAUGGAAGGAGCGCUCGUCAGCCCUGCGAGUGAUGUUCGUGGGUAAAUAGUCGCGAGCAGGUAGGUCGCCAUCUUGAGC [Zainsotima]	0.119 µM
CCGGAGGAAGUCGCUUUUCCUGUGGCAUAGAAGGAUAUCCAAUUAAGGAGAAGGUCUAUCUGCCUUAGUGAUGUUAGGAAGUAGA [theeternabot_sameState_KL_FMN_A_23]	0.162 µM
UGCGGUAGUGAUGUUACCUCAUUAUACUAGCGAGGACCGGUACGGCCGCCACUCGACUUCCUCCACGCCUAGGCCUCUACGUUCA [theeternabot_sameState_KL_Trp_A_36]	0.127 µM
GUGAAGGAGCUGCAGUGAUGUUGCAGAGACUAGGAUAUCAGGAAACUGAGAAGGAGUCAACUCCUUCACCUAGACACUGCAGAAA [[F]''-[K1]-[K2]-[F1]-[F2]-[F2]'-[F1]'-[K]'_Design1]	0.17 µM
AAAGUUGAUGAGUUGGGUAUGUGUUCCGAAGGAGCGAGAAUUAUCUCAGGUAGGUCGCGGAACAUGAGUGAUGUUCAUGUAUAAA [KL-XArg-A7 #analogue]	0.423 µM
UGGGAUGGGCGAGGAUAUGGUGAUGUUUGGGUUGUUAGUGAUGUUGGUGAUGCUGGUGGUGUUUGUCCAGAAGGCGCGGUUUUUU [Bdazzled 3]	0.132 µM
CAUAGGAAACUAUGUAUCUCUCCGACUGAAGGAGCGCGUGAAAACGCAGGUAGGUCGCAGAAUUUAACGGAGAGUGAUGUUCUCU [Ex Arginine A K4 10]	0.385 µM
GCAAAACGCAGUGAUGUUGCGAUAUCGGAAGGAGCGCGUGAAAACGCAGGUAGGUCGCCGAUUCAGUGAGUAUCUCGCUGUUUGC [Arginine A K4 18]	0.259 µM
ACGCUGGUGAAUAACACUAGCGAAUAAUUCCGAGGACCGGUACGGCCGCCACUCGGCUAACUGCGAGUGAUGUUCGAUAAUAAAA [Mat - Mod of OpenEnded 3 - D10]	0.156 µM
UGGACUAGUGUGAGUGAUGUUCACUUCGAUACCAGCAGAGCGAUCUGCCCUUGGCAGCGAGUUAACUGCCGAAAGGCAAGGUCCA [Theo B SS t9a]	0.457 µM
AAGGCCACGAGAAGGAGCGUGUUGUGGAGUGAUGUUCCAUUGUAGACCUAAGGUCUGCGAGCACAGGUAGGUCGCUCGUGGUCAA [whbob_SS_Arginine_B_2t150]	0.11 µM
AGUAGGAAACUACAAUCCUCUCUUACUGAAGGAGCGCGUGAAAACGCAGGUAGGUCGCAGGAUUGGAGAGUGAUGUUCUCCUUAA [Ex Arginine A K4 17]	0.413 µM
AAUAAAAUCACGGCCGCCACUGAUUAGCAUAUUAGGAGUGAUGUUUCUAUGACUAUAUAAUUGAACAGGACCGGGUGAAUAUUUA [#20 K4 Tryptophan B Exclusion]	0.314 µM
GUAUCGCUAGGAGGAUAUUUCAAAUAAUAAAUAAAUGGUUAUACGGAGUGAUGUUCCGAUUUACGGAAAGAAGGCCUAGUGAUAC [FMN B 3]	0.153 µM
CUUCGUAAAGGCCCAGUGAUGUUGGGCACUCGAGGACCGGUACGGCCGCCACUCGCUCCCUAAGUCGCGCGCGUGGGCCACCGCC [Xeteoredre]	0.104 µM
GCAGUGAUGUUGCACGAGUAGGGUAGAGUACGAGGACCGGUACGGCCGCCACUCGUACGGAACUCGCUAAUUUAUGGAAUGGUGA [I]	0.761 µM
CGAGUGAUGUUCGUUCGUAUAUUUGGGUGACAGGAUAUGCGGAAACGCAGAAGGGUCGCCUUCGGGUUACCCGAAUUGGCGUUUU [FMN A Model 2]	0.461 µM
AUCAUAUCUAGUCAGCCCAGUGAUGUUGGGCGAGGACCGGUACGGCCGCCACUCGCUUCGUUGCGGUGGCUGGCGUUACGACAAA [Inveusma]	0.142 µM
AAUAAGGUCGCCGAUACCAGCGCAGGCAGAGCAAAGCUCUGCCAGGUAGUGAUGUUACCGCGCCCUUGGCAGCGGUGGCACGACC [Omei KL Theo B SS C v2]	0.459 µM
UUUCUACCGGGAAGGAGCGUGAAUGAUAAUGGAUAUAGUGAUGUUAUAUAUAAGAACGAAUCGCAGGUAGGUCGCCCGGAUGACU [SSArgB.S]	0.397 µM
AAAUAAAGGGCGGCCGCCACUGAUCGCCUCCGCGUGGGUAUGUAGUGAUGUUAUAUGGCCGCCAUCAGGACCGGGCCAAAUAAAA [#10 K4 Tryptophan B Same State]	0.272 µM
CGAGAAUGUCGACAGUCAUCGGUCCAUGCACGAGGACCGGUACGGCCGCCACUCGAGCGUGGCAGUGAUGUUGCCAGCGCACUAA [KL-XTryp-A14]	0.086 µM
